# Reference: patent US20030059436A1, “Band 3 antigenic peptides, malaria polypeptides and uses thereof” (priority 2001, published 2003)
# Ends that are not written are not given here.
# T1: GST-5ABC (Homo sapiens, UniProt P02730)
# T1 construct: The 5ABC (amino acid 720-761), 5BC (731-761), and 6AB (807-842) genes were amplified from a human reticulocyte cDNA library; made in house; host or cells: E. coli (pGEX-2TK)
# T1 sequence (P02730 720-761): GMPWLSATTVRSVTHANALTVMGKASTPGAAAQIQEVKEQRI
# Assays:
# [1] = biological target: human erythroid Band 3 protein (Anion Exchanger 1) on human RBCs (human) (UniProt P02730); test: 32P-MSP119 on intact human RBCs in suspension; RBCs treated with chymotrypsin 10 min, against untreated RBCs
# [2] = biological target: mouse erythroid Band 3 protein on wild-type mouse RBCs (mouse) (UniProt P04919); test: 32P-MSP119 on intact mouse RBCs in suspension; RBCs treated with chymotrypsin 40 min, against untreated RBCs
# [3] = biological target: human erythroid Band 3 protein (Anion Exchanger 1) on human RBCs (human) (UniProt P02730); test: 32P-MSP119 on intact human RBCs in suspension; RBCs treated with chymotrypsin 40 min, against untreated RBCs
# [4] = biological target: mouse erythroid Band 3 protein on wild-type mouse RBCs (mouse) (UniProt P04919); test: 32P-MSP119 on intact Band 3 (-/-) mouse RBCs against untreated wild-type mouse RBCs in suspension
# [5] = biological target: mouse erythroid Band 3 protein on wild-type mouse RBCs (mouse) (UniProt P04919); test: 32P-MSP119 on intact mouse RBCs in suspension; RBCs treated with neuraminidase, against untreated RBCs
# [6] = biological target: human erythroid Band 3 protein (Anion Exchanger 1) on human RBCs (human) (UniProt P02730); test: 32P-MSP119 on intact human RBCs in suspension; RBCs treated with neuraminidase, against untreated RBCs
# [7] = tested on: GST-MSP138; test: Solution-binding assay, GST-MSP138 on beads; set-up: species or system P. falciparum (FCB1 strain); conditions: 32P-labeled 5BC 21, 42, 84, 168 μM
# Source text: (§1) MSP138 (SEQ ID NO:33), MSP142 (SEQ ID NO:34), and MSP119 (SEQ ID NO:35) genes were amplified from a P. falciparum (FCB1 strain) cDNA library (J. B. Dame) by PCR using the following primers: 5′-[…] (SEQ ID NO: 14, MSP138, sense, 3121-3133, Xhol), 5′-[…] (SEQ ID NO:15, MSP138, antisense, 4200-4193, NotI), 5′-[…] (SEQ ID NO:16, MSP142, sense, 4201-4218, XhoI), 5′-[…] (SEQ ID NO:17, MSP142, antisense, 5334-5321 NotI), 5′-[…]: (SEQ ID NO:18, MSP119, sense, 4993-5009 BamHI), 5′-[…] (SEQ ID NO:19, MSP119, antisense, 5334-5318, EcoRI). Similar cDNA libraries as well as CDNA pools are available to the public from MR4, ATCC (www.malaria.atcc.org).
# (§2) Primers: 5′-[…] […] (SEQ ID NO:26, 6AB, antisense, 2640-2620, EcoRI).
# [8] = biological target: T2, GST-MSP142 (Plasmodium falciparum, UniProt P04933); test: Solution-binding assay, GST-MSP142 on beads; set-up: species or system P. falciparum (FCB1 strain)
# T2 construct: amino acids 1264-1639; made in house; host or cells: E. coli DH5α (pGEX6P-2)
# Source text: as §1, §2
# [9] = tested on: RBCs; conditions: literature reports; cited from earlier work
# [10] = biological target: T1, GST-5ABC; test: Native MSP1 binding to GST-5ABC beads; conditions: Triton X-100 parasite extract, 22-24 h at 4° C.; GST beads as control
# [11] = biological target: T3, SV40 large T-antigen fused to GAL4 AD (pGADT7 vector), two-hybrid control (UniProt P03070 86-708); test: yeast two-hybrid assay (negative control)
# T3 construct: Kit control; also called pGADT7-T
# [12] = tested on: mouse RBCs fixed in methanol; conditions: GST-MSP142 1 μM, GST-MSP138 8 μM
# Method: (§3) RBCs freshly collected into citrate phosphate dextrose buffer were washed (3×) and resuspended in RPMI (20% hematocrit). Thin smears of RBCs on glass slides were allowed to air-dry and fixed in methanol (20-30 sec). The slides were washed with PBS (1×), blocked with 10% fetal bovine serum (FBS) in PBS (pH 7.4) for 1.5 h at 37° C., and again washed with PBS (5×, 10 min each). Fixed cells were incubated with GST-MSP142 (1 μM), GST-MSP138 (8 μM), or GST (9 μM) for 3.5 h at 37° C. in 10% FBS. Slide samples were washed with PBS (5×), incubated with goat anti-GST antibody (1:1,000, Amersham Pharmacia Biotech), washed again (5×), and incubated with rabbit anti-goat FITC-conjugated antibody (1:60, Sigma-Aldrich, St. Louis, Mo.). For visualizing spectrin, fixed cells treated with 10% FBS were incubated with a rabbit antibody raised against human spectrin (Sigma-Aldrich) followed by goat anti-rabbit FITC-conjugated antibody. All dilutions of proteins and antibodies were made in 10% FBS except FITC-conjugated antibodies.
# (§4) First, the above-described RBC binding assay was performed using ^32P-labeled MSP119 and intact Band 3 (−/−) mouse RBCs in suspension. […] In the second method, we carried out an indirect immunofluorescence assay (IFA) using wild-type human and mouse RBCs and Band 3 (−/−) mouse RBCs fixed in methanol.
# [13] = tested on: human RBCs fixed in methanol; conditions: GST-MSP142 1 μM, GST-MSP138 8 μM; GST alone did not bind
# Method: as §3, §4
# [14] = biological target: GST-MSP142 (P. falciparum FCB1 MSP1 42 kDa fragment as GST fusion protein) (Plasmodium falciparum (FCB1 strain)) [GST: P08515]; test: solution-binding assay, 32P-labeled peptide on GST fusion beads
# [15] = biological target: GST-MSP138 (P. falciparum FCB1 MSP1 38 kDa fragment as GST fusion protein, C-terminal truncated forms) (Plasmodium falciparum (FCB1 strain)) [GST: P08515]; test: as above
# [16] = biological target: T3, SV40 large T-antigen fused to GAL4 AD …; test: yeast two-hybrid assay (positive control)
# human erythroid Band 3 protein (Anion Exchanger 1) on human RBCs (human), sequence (P02730 whole entry, form in doubt): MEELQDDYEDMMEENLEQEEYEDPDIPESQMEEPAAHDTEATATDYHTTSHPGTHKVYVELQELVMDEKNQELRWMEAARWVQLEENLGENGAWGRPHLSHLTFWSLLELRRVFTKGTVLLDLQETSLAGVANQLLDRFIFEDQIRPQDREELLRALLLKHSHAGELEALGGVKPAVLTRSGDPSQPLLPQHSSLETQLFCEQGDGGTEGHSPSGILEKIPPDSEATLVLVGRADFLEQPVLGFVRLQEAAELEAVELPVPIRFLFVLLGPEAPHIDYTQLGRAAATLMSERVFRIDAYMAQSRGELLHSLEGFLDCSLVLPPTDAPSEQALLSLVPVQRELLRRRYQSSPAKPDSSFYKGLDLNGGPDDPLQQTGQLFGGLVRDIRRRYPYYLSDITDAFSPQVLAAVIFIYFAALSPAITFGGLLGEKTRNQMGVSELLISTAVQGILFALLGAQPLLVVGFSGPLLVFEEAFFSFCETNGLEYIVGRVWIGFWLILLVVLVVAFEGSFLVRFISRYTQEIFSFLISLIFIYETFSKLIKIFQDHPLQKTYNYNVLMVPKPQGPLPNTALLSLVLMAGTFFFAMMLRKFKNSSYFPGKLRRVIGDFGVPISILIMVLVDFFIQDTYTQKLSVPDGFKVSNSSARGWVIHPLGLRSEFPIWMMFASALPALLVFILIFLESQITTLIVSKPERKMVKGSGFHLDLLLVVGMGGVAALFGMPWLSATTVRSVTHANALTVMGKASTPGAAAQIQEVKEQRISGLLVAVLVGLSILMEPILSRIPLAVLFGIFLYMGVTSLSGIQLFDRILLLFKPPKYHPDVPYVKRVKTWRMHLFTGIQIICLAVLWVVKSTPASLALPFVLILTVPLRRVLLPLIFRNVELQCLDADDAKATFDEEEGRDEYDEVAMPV
# mouse erythroid Band 3 protein on wild-type mouse RBCs (mouse), sequence (P04919 whole entry): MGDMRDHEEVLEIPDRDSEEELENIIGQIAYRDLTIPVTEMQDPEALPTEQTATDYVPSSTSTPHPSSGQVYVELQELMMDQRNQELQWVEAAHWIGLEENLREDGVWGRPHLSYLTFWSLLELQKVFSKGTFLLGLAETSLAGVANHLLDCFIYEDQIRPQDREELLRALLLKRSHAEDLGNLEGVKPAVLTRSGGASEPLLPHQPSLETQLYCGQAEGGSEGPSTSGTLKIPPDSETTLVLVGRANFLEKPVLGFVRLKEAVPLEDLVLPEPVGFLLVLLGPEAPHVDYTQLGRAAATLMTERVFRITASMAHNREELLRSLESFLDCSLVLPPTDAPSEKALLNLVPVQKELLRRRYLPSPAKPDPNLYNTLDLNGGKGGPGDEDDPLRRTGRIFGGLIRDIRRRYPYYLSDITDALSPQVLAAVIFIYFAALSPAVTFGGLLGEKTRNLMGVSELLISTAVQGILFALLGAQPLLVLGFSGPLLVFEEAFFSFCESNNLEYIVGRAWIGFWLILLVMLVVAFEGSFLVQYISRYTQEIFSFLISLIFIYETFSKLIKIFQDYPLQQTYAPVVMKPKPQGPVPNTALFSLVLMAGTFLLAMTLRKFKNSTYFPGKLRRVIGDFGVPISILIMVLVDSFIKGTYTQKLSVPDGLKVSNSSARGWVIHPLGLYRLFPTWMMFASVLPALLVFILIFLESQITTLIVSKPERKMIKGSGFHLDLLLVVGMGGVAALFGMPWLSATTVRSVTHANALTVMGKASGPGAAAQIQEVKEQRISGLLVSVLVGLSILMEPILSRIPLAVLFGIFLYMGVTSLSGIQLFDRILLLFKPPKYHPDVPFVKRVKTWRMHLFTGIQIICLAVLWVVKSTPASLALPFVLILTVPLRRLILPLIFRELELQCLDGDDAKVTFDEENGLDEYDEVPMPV
# T3 sequence (P03070 86-708 limits assumed): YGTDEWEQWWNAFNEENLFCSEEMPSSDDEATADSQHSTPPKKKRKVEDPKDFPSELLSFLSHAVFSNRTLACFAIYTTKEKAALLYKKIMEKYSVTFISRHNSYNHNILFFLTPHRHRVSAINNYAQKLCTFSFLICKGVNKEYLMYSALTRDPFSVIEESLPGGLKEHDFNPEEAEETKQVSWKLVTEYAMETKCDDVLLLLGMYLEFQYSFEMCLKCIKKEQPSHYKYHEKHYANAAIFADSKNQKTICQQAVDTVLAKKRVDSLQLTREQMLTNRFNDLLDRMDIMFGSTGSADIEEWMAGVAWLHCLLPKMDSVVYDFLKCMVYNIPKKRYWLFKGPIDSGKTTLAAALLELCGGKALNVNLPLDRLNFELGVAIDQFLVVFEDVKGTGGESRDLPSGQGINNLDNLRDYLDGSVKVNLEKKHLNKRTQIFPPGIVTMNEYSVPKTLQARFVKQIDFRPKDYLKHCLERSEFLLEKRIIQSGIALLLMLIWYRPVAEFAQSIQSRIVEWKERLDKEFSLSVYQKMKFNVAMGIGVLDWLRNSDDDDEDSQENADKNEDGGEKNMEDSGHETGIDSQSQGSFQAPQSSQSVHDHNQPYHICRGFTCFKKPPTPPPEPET
# T2 sequence (P04933 1264-1639): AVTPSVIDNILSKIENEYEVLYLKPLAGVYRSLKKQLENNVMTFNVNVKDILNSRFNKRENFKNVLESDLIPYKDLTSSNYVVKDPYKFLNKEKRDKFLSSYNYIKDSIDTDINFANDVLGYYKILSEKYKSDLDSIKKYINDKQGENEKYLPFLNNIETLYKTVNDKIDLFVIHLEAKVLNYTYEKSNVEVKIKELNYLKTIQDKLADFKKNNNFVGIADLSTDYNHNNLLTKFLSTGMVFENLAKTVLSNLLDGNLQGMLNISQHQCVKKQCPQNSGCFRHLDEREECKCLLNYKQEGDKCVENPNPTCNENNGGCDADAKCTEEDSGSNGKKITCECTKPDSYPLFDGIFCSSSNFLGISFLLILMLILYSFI
# GST-MSP138 (P. falciparum FCB1 MSP1 38 kDa fragment as GST fusion protein, C-terminal truncated forms) (Plasmodium falciparum (FCB1 strain)) [GST: P08515], sequence (P08515 whole entry, the tested form may be a part): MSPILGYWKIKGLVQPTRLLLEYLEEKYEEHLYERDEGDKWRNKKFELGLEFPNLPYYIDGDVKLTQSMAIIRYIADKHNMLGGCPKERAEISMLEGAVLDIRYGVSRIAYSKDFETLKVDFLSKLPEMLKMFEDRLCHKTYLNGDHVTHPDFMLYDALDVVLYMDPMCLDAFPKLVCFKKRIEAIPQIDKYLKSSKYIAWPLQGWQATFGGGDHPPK
# GST-MSP142 (P. falciparum FCB1 MSP1 42 kDa fragment as GST fusion protein) (Plasmodium falciparum (FCB1 strain)) [GST: P08515], sequence (P08515 whole entry, the tested form may be a part): as above
molecule,measurement,setting,value
"32P-labeled MSP119 (P. falciparum FCB1 MSP1 19 kDa C-terminal fragment, GST removed with thrombin) (ligand)",reduction in ability to bind MSP119 as compared to the untreated RBCs,[1],30%
same,reduction in ability to bind MSP119 as compared to the untreated RBCs,[2],41%
same,reduction in ability to bind MSP119 as compared to the untreated RBCs,[3],37%
same,reduction of radioactivity associated with Band 3 (-/-) mouse RBCs as compared to untreated wild-type mouse RBCs,[4],72%
same,increase in ability to bind MSP119 as compared to the untreated RBCs,[5],51%
same,increase in ability to bind MSP119 as compared to the untreated RBCs,[6],52%
"GMPWLSATTVRSVTHANALTVMGKASTPGAAAQIQEVKEQRI (not fully specified) [Peptide 5ABC, Recombinant human Band 3 peptide, amino acid 720-761, expressed as GST or GAL4 DNA-BD fusion]",binding to GST-MSP138 on beads,[7],specifically bound
same,binding to GST-MSP142 on beads,"[8]; 32P-labeled 5ABC 10, 20, 40, 80 μM",concentration-dependent manner
same,Kd,"[8]; 32P-labeled peptide, pH 7.4, 25° C., 3.5 h",36 µM
"MSP1: P. falciparum merozoite surface protein-1, native full-length",binding to RBCs (earlier studies),[9],bound to RBCs in sialic acid-dependent manner
same,binding of radiolabeled native parasite protein to GST-5ABC beads,[10],bound specifically to the 5ABC domain
"Lamin C fused to GAL4 DNA-BD (pGBKT7 vector), two-hybrid control (other, Kit control) MKLLSSIEQACDICRLKKLKCSKEKPKCAKCLKNNWECRYSPKTKRSPLTRAHLTEVESRLERLEQLFLLIFPREDLDMILKMDSLQDIKALLTGLFVQDNVNKDAVTDRLASVETDMPLTLRQHRISATSSSEESSNKGQRQLTVSSEEVVSREVSGIKAAYEAELGDARKTLDSVAKERARLQLELSKVREEFKELKARNTKKEGDLIAAQARLKDLEALLNSKEAALSTALSEKRTLEGELHDLRGQVAKLEAALGEAKKQLQDEMLRRVDAENRLQTMKEELDFQKNIYSEELRETKRRHETRLVEID",binding result,[11],no binding
MSP142: 42 kDa proteolytic fragment of P. falciparum MSP1 (FCB1 strain) (protein) AISVTMDNILSGFENEYDVIYLKPLAGVYRSLKKQIEKNIFTFNLNLNDILNSRLKKRKYFLDVLESDLMQFKHISSNEYIIEDSFKLLNSEQKNTLLKSYKYIKESVENDIKFAQEGISYYEKVLAKYKDDLESIKKVIKEEKEKFPSSPPTTPPSPAKTDEQKKESKFLPFLTNIETLYNNLVNKIDDYLINLKAKINDCNVEKDEAHVKITKLSDLKAIDDKIDLFKNPYDFEAIKKLINDDTKKDMLGKLLSTGLVQNFPNTIISKLIEGKFQDMLNISQHQCVKKQCPENSGCFRHLDEREECKCLLNYKQEGDKCVENPNPTCNENNGGCDADATCTEEDSGSSRKKITCECTKPDSYPLFDGIFCS,binding to Band 3 (−/−) mouse RBCs (IFA),[12],"neither GST-MSP142, GST-MSP138, nor GST alone bound"
same,binding to wild-type mouse RBCs (IFA),[12]; GST alone did not bind,bound
same,binding to wild-type human RBCs (IFA),[13],bound
same,binding of radiolabeled native parasite protein to GST-5ABC beads,[10],bound specifically to the 5ABC domain
"GMPWLSATTVRSVTHANALTVMGKASTPGAAAQIQEVKEQRI (peptide, not shown: small tags and cut ends, modifications not checked) [32P-labeled 5ABC (recombinant human Band 3 amino acid 720-761, GST removed with thrombin)]",Kd,[14],36 µM
"SVTHANALTVMGKASTPGAAAQIQEVKEQRI (peptide, not shown: small tags and cut ends, modifications not checked) [32P-labeled 5BC (recombinant human Band 3 amino acid 731-761, GST removed with thrombin)]",Kd,[15],67 µM
"p53 fused to GAL4 DNA-BD (pGBKT7 vector), two-hybrid control (other, Kit control; also called pGBKT7-53) MKLLSSIEQACDICRLKKLKCSKEKPKCAKCLKNNWECRYSPKTKRSPLTRAHLTEVESRLERLEQLFLLIFPREDLDMILKMDSLQDIKALLTGLFVQDNVNKDAVTDRLASVETDMPLTLRQHRISATSSSEESSNKGQRQLTVSPVTETPGPVAPAPATPWPLSSFVPSQKTYQGNYGFHLGFLQSGTAKSVMCTYSPPLNKLFCQLAKTCPVQLWVSATPPAGSRVRAMAIYKKSQHMTEVVRRCPHHERCSDGDGLAPPQHLIRVEGNLYPEYLEDRQTFRHSVVVPYEPPEAGSEYTTIHYKYMCNSSCMGGMNRRPILTIITLEDSSGNLLGRDSFEVRVCACPGRDRRTEEENFRKKEVLCPELPPGSAKRALPTCTSASPPQKKKPLDGEYFTLKIRGRKRFEMFRELNEALELKDAHATEESGDSRAHSSYLKTKKGQSTSRHKKTMVKKVGPDSD",binding result,[16],binds
